Test results: US6509443

T1: IGF-I L5A on phage (G1S-A70V background, gene III fusion) (human; bacteriophage M13)
T1 construct: monovalent on M13 phage; not shown: M13 gene III fragment (residues 249-406) and the junction after residue 70
T1 chain: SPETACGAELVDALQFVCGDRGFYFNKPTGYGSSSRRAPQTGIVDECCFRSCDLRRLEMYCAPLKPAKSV

T2: IGF-I T4A on phage (G1S-A70V background, gene III fusion) (human; bacteriophage M13)
T2 construct: monovalent on M13 phage; not shown: M13 gene III fragment (residues 249-406) and the junction after residue 70
T2 chain: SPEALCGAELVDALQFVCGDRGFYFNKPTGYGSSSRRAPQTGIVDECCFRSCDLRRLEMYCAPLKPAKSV

T3: IGF-I F49A on phage (G1S-A70V background, gene III fusion) (human; bacteriophage M13)
T3 chain: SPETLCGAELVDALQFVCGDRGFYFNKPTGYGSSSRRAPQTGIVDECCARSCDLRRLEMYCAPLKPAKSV

B1: human IGFBP-1 (other, UniProt P08833 26-259, looked up)
chain: APWQCAPCSAEKLALCPPVSASCSEVTRSAGCGCCPMCALPLGAACGVATARCARGLSCRALPGEQQPLHALTRGQGACVQESDASAPHAAEAGSPESPESTEITEEELLDNFHLMAPSEEDHSILWDAISTYDGSKALHVTNIKKWKEPCRIELYRVVESLAKAQETSGEEISKFYLPNCNKNGFYHSRQCETSMDGEAGLCWCVYPWNGKRIPGSPEIRGDPNCQIYFNVQN
notes: mature
B2: IGF-I E3A on phage (G1S-A70V background, gene III fusion) (ligand)
chain: SPATLCGAELVDALQFVCGDRGFYFNKPTGYGSSSRRAPQTGIVDECCFRSCDLRRLEMYCAPLKPAKSV
notes: monovalent on M13 phage; not shown: M13 gene III fragment (residues 249-406) and the junction after residue 70

What was measured:
[1] = molecular target: T4, IGF-I S69A on phage (G1S-A70V background, gene III fusion) (human; bacteriophage M13); assay: competitive phage ELISA, soluble vs coated IGFBP-1
T4 construct: monovalent on M13 phage; not shown: M13 gene III fragment (residues 249-406) and the junction after residue 70
Method: (§1) Phage particles were harvested and resuspended in PBS buffer as described in Lowman, H. B., "Phage Display of Peptide Libraries on Protein Scaffolds," in Cabilly, S. (ed.), *Combinatorial Peptide Library Protocols* (Humana Press Inc.: Totowa, N.J., 1998), pp. 249–264. Then phage concentrations were normalized to yield a maximal ELISA signal of 0.2–0.4 for each mutant (Lowman, in Cabilly, S. (ed.), supra). Threefold serial dilutions of soluble competitor were prepared on non-absorbent microtiter plates (Nunc, F, 96 wells) with binding buffer (0.5% TWEEN™ 20/PBS) containing phage at the previously-determined concentrations. […] After blocking, the plates containing immobilized target were washed with 0.05% TWEEN™/PBS buffer and subsequently incubated with 80 μl/well of the premixed phage-competitor solutions for 1 hour at room temperature. […] Numbers in Table I represent mean±standard deviation of individually assessed $IC50$ values.
(§2) At least two different clones of every mutant were tested.

[2] = molecular target: T5, IGF-I V70A on phage (single mutant of G1S-A70V, gene III fusion) (human; bacteriophage M13); assay: competitive phage ELISA, soluble vs coated IGFBP-1
T5 construct: monovalent on M13 phage; not shown: M13 gene III fragment (residues 249-406) and the junction after residue 70
Method: as §1, §2

[3] = molecular target: T1, IGF-I L5A on phage (G1S-A70V …); assay: competitive phage ELISA, soluble vs coated IGFBP-1
Method: as §1, §2

[4] = molecular target: B2; assay: competitive phage ELISA, soluble vs coated IGFBP-1
Method: as §1, §2

[5] = molecular target: T6, IGF-I S1G on phage (single mutant of G1S-A70V, gene III fusion) (human; bacteriophage M13, UniProt P05019 49-117); assay: competitive phage ELISA, soluble vs coated IGFBP-1
T6 construct: monovalent on M13 phage; not shown: M13 gene III fragment (residues 249-406) and the junction after residue 70
Method: as §1, §2

[6] = molecular target: T2, IGF-I T4A on phage (G1S-A70V …); assay: competitive phage ELISA, soluble vs coated IGFBP-1
Method: as §1, §2

[7] = molecular target: T3, IGF-I F49A on phage (G1S-A70V …); assay: phage ELISA on coated IGFBP-3, soluble IGFBP-1 as competitor (FIG. 3A); settings: remark: other sources report otherwise
[8] = molecular target: B1; assay: competitive phage ELISA
Method: as §1, §2

[9] = molecular target: T7, recombinant human IGFBP-3 (human, UniProt P17936 28-291); assay: competitive phage ELISA
T7 construct: mature
Method: as §1, §2

T7 sequence (P17936 28-291): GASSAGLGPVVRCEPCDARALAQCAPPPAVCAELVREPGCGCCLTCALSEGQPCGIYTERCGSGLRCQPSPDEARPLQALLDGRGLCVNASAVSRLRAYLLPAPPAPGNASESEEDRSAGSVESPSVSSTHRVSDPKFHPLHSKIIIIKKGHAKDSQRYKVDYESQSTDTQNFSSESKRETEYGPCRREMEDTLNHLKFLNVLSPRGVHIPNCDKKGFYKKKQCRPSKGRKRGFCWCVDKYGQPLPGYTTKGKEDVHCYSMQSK

Binder | IC50 [1] [nM] | IC50 [2] [nM] | IC50 [3] [nM] | IC50 [4] [nM] | IC50 [5] [nM] | IC50 [6] [nM] | shift of the binding curve against G1S-A70V phage [7] [fold] | binding result [8] | binding result [9]
B1 | 12.8 | 19.1 | 55.3 | 278 | 11.2 | 19.4 | > 100 |  | 
B2 |  |  |  |  |  |  |  | binds | binds
